B1: Twister Ribozyme (parent)
chain: AACACUGCCAAUGCCGGUCCCAAGCCCGGAUAAAAGUGGAGGGGGCGG

In this series the parent is B1. The experiment in a line: self-cleavage, relative activity (ratio to wild type); higher = more cleavage; co-transcriptional.
For the variant AACACCGCCAAUGCCGGUCCCAAGCCCGGAUAAAAGUGGAGGGUGCGG, the self-cleavage amounted to 0.502.
Next, AACACUGCCAAUGCCGGUCCCAAGCCCGGAGAAAAGUGGAGGGGGCCG: 0.755.
On to UACACUGCCAAUGCCGGUCCCAAGCGCGGAUAAAAGUGGAGGGGGCGG, for which the self-cleavage came out at 0.0605.
As to AACACUUCCAAUGCCGGUCCCAAGCCCGGAUAAAAUUGGAGGGGGCGG, the self-cleavage came to 0.0615.
For the variant AAAACUGCCAAUGCCGGUCCCAAGCCCGGAUAAAAGUGUAGGGGGCGG, the self-cleavage was 0.0737.
Next, AACACUGCCAAUGGCGGCCCCAAGCCCGGAUAAAAGUGGAGGGGGCGG: 0.074; AACACUGCCAAUGCCGGUCCCAAGCCCUGAUAAAAGUCGAGGGGGCGG: 0.676.
Consider AACACUGCCAAUGCCGGUCCCAAGCCCGGAUAAAAGUGGGGUGGGCGG, for which the self-cleavage came to 0.172.
Next, AACACUCCCAAUGCCGGUCCCAAGCCCGGAUAAAAGUGGAGGGGGUGG: 0.0589; AACACUGCCAAUGCCUGUCCCACGCCCGGAUAAAAGUGGAGGGGGCGG: 0.115; AACACUGCCAAUGCCGGUACCAAGCCGGGAUAAAAGUGGAGGGGGCGG: 0.073.
Regarding AACACUGUCAAUGCCGGUCCCAAGCCCGGAUAAUAGUGGAGGGGGCGG, the self-cleavage was determined as 0.308.
For AACUCUGCCAAUGCCGGUCCCAAGCCCGGAUAAAAGUGGAGGGGGCGC, the self-cleavage stood at 0.193.
Regarding AACACUGCCAAUGCCAGUCCCAAGCCCGGAUAAAAGUCGAGGGGGCGG, the self-cleavage was found to be 0.761.
Under AACACUGCCAAUUCCGGUCCCAAGCCCGGAUAAAAGUGGAGGGGGCGA stands 0.309; under AACACUGCCAAUGCCGGUCCCAAGCCAGGAUAAAAGUGGAGGGUGCGG, 0.41.
Turning to AACACUGCCAAUUCCGGUCUCAAGCCCGGAUAAAAGUGGAGGGGGCGG, the self-cleavage was determined as 0.134.
Turning to AGCACUGCCAAUGCCGGUCCCACGCCCGGAUAAAAGUGGAGGGGGCGG, the self-cleavage turned out to be 0.0651.
Take AACACUGCCAAUGCCGGUCCCAAGUCCGUAUAAAAGUGGAGGGGGCGG: the self-cleavage came out at 0.824.
For AACACUGCCAAUGCCGGUUCCAAGCCAGGAUAAAAGUGGAGGGGGCGG, the self-cleavage is 0.176.
For AACACUGCCAAUGCCGGUCCCAAGCCCGGAUAAAAGUGGAGGAGGAGG, the self-cleavage turned out to be 0.334.
For the variant AACACGGCCAAUGGCGGUCCCAAGCCCGGAUAAAAGUGGAGGGGGCGG, the self-cleavage is 0.0983.
For the variant GACACUGCCAAUGCCGGUCCCAAGCCCGGAUAAAAGUGGAGGGGGUGG, the self-cleavage came to 0.393.
AACACUGCCUAUGCCGGUCCCAAGCCCGGAUAAAAGUGGAGGGGGCGU: the self-cleavage was 0.933.
For the variant AACACUGCCAAUGCCGGUCCUAAGCCCGGAUCAAAGUGGAGGGGGCGG, the self-cleavage came out at 0.107.
For AACUCUGCCAAUGCCGGUCCCAAACCCGGAUAAAAGUGGAGGGGGCGG, the self-cleavage was determined as 0.0658.
For the variant AACACUGUCAAUGCCGGUCCCAAGCCCGGAUAAAAGUGGAGGGGCCGG, the self-cleavage worked out at 0.141.
On to AAUACUGCCAAUGCCGGUCCCAAGCCCGGAUAACAGUGGAGGGGGCGG, for which the self-cleavage worked out at 0.155.
On to AACACUGCCGAUGCCGGUCCCAAACCCGGAUAAAAGUGGAGGGGGCGG, for which the self-cleavage turned out to be 0.178.
Regarding AACACUCCCAAUGCCGGUCCCAAGCCCGGAUAAAAGAGGAGGGGGCGG, the self-cleavage is 0.0472.
As for AACACUGCCAAUGCCGGUGUCAAGCCCGGAUAAAAGUGGAGGGGGCGG, the self-cleavage stood at 0.117.
Consider AGCACUGCCAAUGCCGGUCCCAAGCCCGGAAAAAAGUGGAGGGGGCGG, for which the self-cleavage amounted to 0.328.
On to AACACAGCCAAUGCCGGUCCCAAGCCCGGAUACAAGUGGAGGGGGCGG, for which the self-cleavage amounted to 0.949.
As to AACACUGCCAAUGACGGUCCCAAGCCCGGAUAAAAGUGAAGGGGGCGG, the self-cleavage is 0.409.
Consider AACACUGCCAAUGCCGGUCCCAAGCCCGGAUAAAAGUUGAGGGGGCGG, for which the self-cleavage turned out to be 0.923.
Consider AACACUGCCAAUGCCGGUCCCAUGCCCGGAUAAAAGUGGAGGUGGCGG, for which the self-cleavage was found to be 0.112.
As to AACACUGCCAAUGCCGAUCCCAAGCCCGGAGAAAAGUGGAGGGGGCGG, the self-cleavage was found to be 0.706.
Turning to AACACUGCCAAUGCCGGACCCAGGCCCGGAUAAAAGUGGAGGGGGCGG, the self-cleavage is 0.0959.
Take AACACUGCCAAUGCCGGUCCCAAGCCCGGAUAAAAACGGAGGGGGCGG: the self-cleavage stood at 0.156.
With AACACUGCCAAUGCCGGUCCCAAGCGCGGAUAAAAGUGGGGGGGGCGG, the self-cleavage was 0.127.
For the variant AACACUGCCAAUGCCGGUCCCAAACCCGGAUAAAUGUGGAGGGGGCGG, the self-cleavage was found to be 0.113.
With AAGACUACCAAUGCCGGUCCCAAGCCCGGAUAAAAGUGGAGGGGGCGG, the self-cleavage stood at 0.0769.
On to AACACUGGCAAUGCCGGUCCCAAGCCCGGAUAAAAGUGGGGGGGGCGG, for which the self-cleavage worked out at 0.146.
Under CACACUGCCAAUGCCGGUCCCAAGCCCGGAUAAAAGUGGGGGGGGCGG stands 0.117.
Turning to AACACUGCCAAUGACGGUCCCAAGCCCGGAUUAAAGUGGAGGGGGCGG, the self-cleavage came out at 0.848.
As for AACACUGCCAAUGCCGGUCCCAAGCCCGGAUAAACGUGGAGGGUGCGG, the self-cleavage stood at 0.976.
In the case of AAUACUGCCAAUCCCGGUCCCAAGCCCGGAUAAAAGUGGAGGGGGCGG, the self-cleavage came to 0.168.
Regarding AACACUGCCAAAGCCGGUCCCAAGCCCGGAUAAAACUGGAGGGGGCGG, the self-cleavage came out at 0.693.
As for AACACUGCCAAUGCCGGUCCCAAGCCCGGGUAACAGUGGAGGGGGCGG, the self-cleavage was determined as 0.497.
On to AACACUGCCAAUGCCGGUCCCAAGCCCGUAUAAAAGUGGAGGGGGUGG, for which the self-cleavage turned out to be 0.901.
Take AAAACUGCCAAUGCCGCUCCCAAGCCCGGAUAAAAGUGGAGGGGGCGG: the self-cleavage is 0.0654.
Consider AACAAUGCCAAUGCCGGUCCCAAGCCCGGAUAAAAGUCGAGGGGGCGG, for which the self-cleavage was found to be 0.341.
Next, GACACUGCCAAUGCCGGUCCCAAGACCGGAUAAAAGUGGAGGGGGCGG: 0.197; AACACUGCCUAUGCCGGUCCCAAGCCCGGAUAAAAGUGGAGAGGGCGG: 0.489.

Values taken from the RNAGym collection of RNA variant scans (doi:10.7554/elife.80360).
